For the assay, the target named is Recombinant full-length MMTV Gag containing hexa-histidine tag at the C-terminus (Pr77^Gag) (mouse mammary tumor virus (MMTV)). Kind of assay: dynamic light scattering; purified Pr77^Gag-His6 alone in storage buffer (50 mM Tris-HCl pH 8.0, 1 M NaCl); the hydrodynamic radius (about 6.00 nm) from volume and number distributions is read as the oligomer's size.

By stoichiometry N is commonly meant the number of molecules, sites or subunits per partner or assembly. For the substance “Recombinant full-length MMTV Gag containing hexa-histidine tag at the C-terminus (Pr77^Gag) (natural protein)”, the stoichiometry N was found to be 3.

Values taken from article PMC11449360.
